Residue numbers refer to the chain shown, from its start. Values belong to the binder of their own block, whether it stands above or below them.
Columns and labels:
[1] = target: T1, recombinant HMG1 purified from E. coli as a calmodulin binding protein (CBP) fusion protein (human, UniProt A9RA84 1-215 (Papio anubis entry)); assay: cell-based or functional assay
T1 sequence: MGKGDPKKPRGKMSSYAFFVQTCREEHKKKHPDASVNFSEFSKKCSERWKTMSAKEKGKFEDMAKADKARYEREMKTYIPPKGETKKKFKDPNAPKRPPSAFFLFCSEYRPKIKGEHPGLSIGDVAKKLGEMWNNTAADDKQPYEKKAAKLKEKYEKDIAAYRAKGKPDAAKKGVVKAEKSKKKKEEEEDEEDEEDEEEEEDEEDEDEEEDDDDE

[2] = target: T2, HMG1 purified from bovine (calf) thymus (bovine, UniProt P10103 2-215); assay: ELISA, wells coated with calf thymus HMGB1 at 5 ug/mL, antibody at 10 ug/mL, anti-human kappa/lambda-HRP, OD 490
T2 construct: also called Calf thymus HMGB1; thymus HMG1
T2 sequence (looked up): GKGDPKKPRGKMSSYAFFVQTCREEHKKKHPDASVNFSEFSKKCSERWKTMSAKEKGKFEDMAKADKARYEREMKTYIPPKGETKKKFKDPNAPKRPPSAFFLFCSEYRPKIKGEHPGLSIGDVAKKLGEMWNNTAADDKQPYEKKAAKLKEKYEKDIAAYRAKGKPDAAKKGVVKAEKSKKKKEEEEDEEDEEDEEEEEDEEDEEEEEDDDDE
Method: Binding to HMG1 vs. HMG2: Ultra high-binding ELISA plates (ThermoLab systems, #3855) were coated with either 5 ug/mL of Calf thymus HMGB1 or HMBG2 diluted in 10 mM Phosphate buffered saline (PBS), pH 7.2 and incubate overnight at 4 degrees. The plates were washed twice with Ca and Mg free PBS and 100 microliters of anti-HMGB1 antibody diluted in 10 mM PBS, pH 7.2+1% bovine serum albumin (BSA) to a final concentration of 10 ug/mL was added to each well and the plates were incubated 1 hour at room temperature. The wells were washed three times with 100 μl of PBS, pH 7.2. HRP labeled goat-anti-human IgG Kappa-chain (KPL, #14-10-10) and goat-anti-human IgG Lambda-chain (KPL, #14-10-11) were diluted in 10 mM PBS+1% BSA 1:1000 and 100 μl were added to each well and incubated for 1 hour at room temperature. The wells were then washed three times with 100 μl of PBS, pH 7.2. OPD substrate (Pierce chemical company, #34006) was prepared following the manufacturers instructions and 100 μl of prepared substrate was added to each well and the plates incubated at room temperature in the dark for 20-30 minutes. The reaction was stopped with the addition of 100 μl of 2M H₂SO₄, and the plates read on a plate reader at a wavelength of 490 nm.

[3] = target: T3, HMG1 B Box peptide amino acids 91-169; assay: ELISA, wells coated with HMG1 B Box peptide 91-169 at 10 ug/ml, anti-human IgG-HRP, OD 450
T3 construct: also called HMG1 peptide 91-169
T3 peptide: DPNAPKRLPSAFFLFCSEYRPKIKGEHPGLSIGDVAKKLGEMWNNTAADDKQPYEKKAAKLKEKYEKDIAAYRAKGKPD
Method: (§1) The plate was then blocked with 4% milk powder dissolved in PBS at 37° C. for 1 hour. The blocking solution was removed and replaced with human anti-HMG1 antibodies at various concentrations (see FIGS. 5A-B). […] HRP activity was detected with Sureblue HRP substrate (KPL). Plates were read at 450 nm using a Kinetic Microplate Reader (Molecular Devices). […] After washing and blocking with 1% BSA in PBS, the biotinylated peptides were individually added into the avidin coated wells and incubated for 30 min at room temperature. The serial diluted antibody G4, S16 and S6 at the initial concentration at 10 μg/ml were then transferred into the wells followed by adding mouse anti human IgG-HRP conjugate (Pierce). Detection was accomplished by adding 50 μl of tetramethylbenzidine (TMB) substrate (KPL) and the absorbance was read at […].

[4] = target: T4, HMG1 B Box peptide amino acids 150-183; assay: ELISA, wells coated with HMG1 B Box peptide 150-183 at 10 ug/ml, anti-human IgG-HRP, OD 450
T4 peptide: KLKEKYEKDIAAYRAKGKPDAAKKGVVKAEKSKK
Method: as §1

[5] = target: T4, HMG1 B Box peptide amino acids 150-183; assay: ELISA, wells coated with HMG1 B Box peptide 150-183 at 10 ug/ml
Method: as §1

[6] = target: T5, activated HMG1 prepared from LPS stimulated THP-1 cells (human, UniProt P09429 1-215); assay: cell-based or functional assay
T5 sequence (looked up): T1 sequence

[7] = target: T6, recombinant rat HMGB-1, Europium-labeled (rat, UniProt P63159 1-215, limits assumed, Europium label, molar ratio of HMGB-1 to Eu 1:5); assay: inhibition of binding of Eu-labeled HMGB-1 to THP-1 cells
T6 construct: also called Europium-labeled HMGB-1; recombinant HMG1 (Thp-1 assay)
T6 sequence (looked up): T1 sequence with E189D, D202E
Method: HMG1 binding to THP-1 Cells: Recombinant rat HMGB-1 was labeled using Eu-labelling Kit from PerkinElmer. Molar ratio of HMGB-1 to Eu is 1:5. THP-1 were cultured as the protocol from ATCC. Cells were harvested and suspended at concentration 1×10⁶/ml in assay buffer containing 1×DELFIA L*R binding buffer (PerkinElmer), 50% of DELFIA stabilizer (PerkinElmer) and 0.05% of sodium azide. 100 μl of cells (1×10⁵) was added into wells in 96 well cell culture plate. The plate was incubated with gentle shaking at 4° C. for one hour. 100 μl of assay buffer containing 2 nM of Europium-labeled HMGB-1 mixed with various concentrations (333, 166.5, 83.25, 41.6, 20.8, 10.4 and 5.2 nM) of human anti-HMGB1 antibodies E11 or G2 or soluble human RAGE-Fc, were added into each wells respectively. After one hour incubation with gentle shaking at 4° C., the cells were washed four times with 1×L*R wash buffer (PerkinElmer) by centrifuging at 1200 rpm×5 min. 200 μl of enhancement solution was added into each well to dissociate and enhance Eu fluorescence at 615 nm. The fluorescence was measured with Wallac Victor Fluorometer. Assay was performed in triplicate and human antibody R3-47 was used the negative isotype control.

[8] = target: T1, recombinant HMG1 purified from E. coli …; assay: ELISA format 'Soluble HMG1/Captured Antibody' (squares): antibody captured on anti-human IgG Fc, HMG1 in solution
Method: Sandwich ELISA (soluble HMG1): Immunoplates (EIA/RIA plate, High binding, Costar) were coated with anti human IgG Fc at 10 μg/ml in PBS (pH 7.2) and incubated at 4° C. overnight. The coating reagent was removed and the plates were rinsed briefly with PBS. The plates were then blocked with 4% milk for 1 hour at 37° C. and rinsed with PBS. The anti-HMG1 antibodies were diluted in 4% milk. For serial dilutions, the antibodies were used at a starting concentration of 20 μg/ml. The diluted anti-HMG1 antibodies were then added into plate and incubated for 1 hr at 37° C. The plate was then washed 10 times with PBST (PBS/0.1% tween 20) and incubate with antigen (HMGB1, 2 μg/ml; or 0.7 μg/ml for native HMGB1) in 4% milk and incubated at 37° C. for 1 h. The plate was then wash 10 times and incubated with mouse anti-HMGB1, 1 μg/ml in 4% milk at 37° C. for 1 h. The plate was washed 10 times and incubated with anti-mouse IgG-HRP at 1:1000 at 37° C. for 1 h. The plate was then washed and developed. HRP activity was detected with Sureblue HRP substrate (KPL). Plates were read at 450 nm using a Kinetic Microplate Reader (Molecular Devices).

[9] = target: T3, HMG1 B Box peptide amino acids 91-169; assay: ELISA, wells coated with HMG1 B Box peptide 91-169 at 10 ug/ml
Method: as §1

Mouse RAGE/Fc = target: T7, Mouse RAGE/Fc (mouse, UniProt Q62151 24-342); assay: ELISA, HMGB1 titrated on RAGE-Fc in the presence of 0.03 µM CpG-A (right panel)
T7 construct: also called RAGE/Fc fusion; not shown: Fc part not described

[10] = target: T8, HMGB1 in human brain tissue of multiple sclerosis plaques (human, UniProt P09429 1-215); assay: staining of human brain tissue
T8 construct: also called HMGB1 (MS plaques)
T8 sequence (looked up): T1 sequence

[11] = target: T1, recombinant HMG1 purified from E. coli …; assay: BIAcore, mAb immobilized, HMG1 injected, steady-state model
Method: HMG1 Binding Affinity via BIAcore Analysis: All experiments were performed on a BIAcore 3000 instrument (BIAcore, Inc., Piscataway, N.J.). Briefly, each mAb was immobilized to a CM5 sensor chip using a standard amino coupling chemistry. Separately a reference (control) flow cell was also prepared. Two-fold, serial dilutions of HMG1 in instrument buffer were sequentially injected at a slow flow rate over the individual mAb and reference flow-cell surfaces. Following the binding and dissociation of HMG1, the mAbs surfaces were regenerated with a brief pulse of 1M NaCl-50 mM NaOH. At the end of each experiment, the binding curves were evaluated using a steady-state model available through the BIA evaluation software supplied by BIAcore, Inc. (Piscataway, N.J.).

T7 sequence (Q62151 24-342): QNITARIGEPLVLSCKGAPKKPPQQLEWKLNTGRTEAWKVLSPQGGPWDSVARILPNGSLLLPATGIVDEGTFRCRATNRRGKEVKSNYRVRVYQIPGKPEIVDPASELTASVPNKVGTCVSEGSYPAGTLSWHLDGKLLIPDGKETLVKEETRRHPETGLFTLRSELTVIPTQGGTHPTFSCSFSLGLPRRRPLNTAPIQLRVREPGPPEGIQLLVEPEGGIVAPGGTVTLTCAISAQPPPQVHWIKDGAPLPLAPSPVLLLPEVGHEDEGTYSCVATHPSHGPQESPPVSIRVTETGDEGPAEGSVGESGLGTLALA

IC50, inhibition of rHMG1 stimulated IL-6 release from human PBMC [1]: 1.67 nM | binding result [2]: binds | binding result [3]: binds | binding result [4]: binds
B1: anti-HMG1 antibody S12 (antibody, V domains shown)
VH: EVQLLESGGGLVQPGGSLRLSCAASGFTFSKYIMHWVRQAPGKGLEWVSGIVPSGGLTEYADSVKGRFTISRDNSKNTLYLQMNSLRAEDTATYYCAKEIFGQFDYWGQGTLVTVSS
VL: AQSALTQPPSVSAAPRQRVTISCSGSTSNIGNNAVTWYQYFPGKAPKLLIYSDNQRPSGVPDRFSGSKSGTSASLAITGLQAEDEADYYCQSYDRGLSVVFGGGTKLTVL

binding result [5]: no binding (tested: 10 ug/ml (log 1.00)) | IC50, inhibition of native activated HMG1 stimulated IL-6 release from human PBMC [6]: 1.73 nM | IC50, inhibition of HMG1 stimulated NO release from macrophages [1]: 101 µg/mL | IC50, inhibition of rHMG1 stimulated IL-6 release from human PBMC [1]: 1.22 nM | IC50 [7]: 48.1 nM | binding result [2]: binds | EC50 (read off the curve) [8]: ~0.4 µg/mL | binding result [9]: no binding (tested: 10 ug/ml (log 1.00))
B2: anti-HMG1 antibody E11 (antibody, V domains shown)
VH: EVQLLESGGGLVQPGGSLRLSCAASGFTFSRYQMNWVRQAPGKGLEWVSSISPSGGHTHYADSVKGRFTISRDNSKNTLYLQMNSLRAEDTAVYYCAKDGRQGKISTVDHWGQGTLVTVSS
VL: DIQMTQSPGTLSLSPGERATLSCRASQSVRSNFLAWYQQKPGQAPRLLIYGASRRASGIPDRFSGSGFGADFTLSISRLEPEDFAVYYCQQYGSSPNTFGQGSRVEIK

EC50 (read off the curve) (Mouse RAGE/Fc): ~100 nM
B3: HMGB1/CpG-A complex (other, bovine, UniProt P10103 2-215, looked up)
chain: T2 sequence (looked up)
notes: also called HMGB1/CpG complex; CpG/HMGB1 complex

binding result [5]: no binding (tested: 10 ug/ml (log 1.00)) | binding result [10]: binds | IC50, inhibition of HMG1 stimulated NO release from macrophages [1]: 22 µg/mL | IC50, inhibition of rHMG1 stimulated IL-6 release from human PBMC [1]: 1.06 nM | Kd [11]: 22 nM | binding result [9]: no binding (tested: 10 ug/ml (log 1.00))
B4: anti-HMG1 antibody G16 (antibody, V domains shown)
VH: EVQLLESGGGLVQPGGSLRLSCAASGFTFSWYKMTWVRQAPGKGLEWVSSISPSGGFTSYADSVKGRFTISRDNSKNTLYLQMNSLRAEDTAVYYCARDLDIRHAFDIWGQGTMVTVSS
VL: DIQMTQSPGTLSLSPGESGTLSCRASESVSSRHFAWYQQKPGQAPRLLIYGASSRPTGIPDRFSGSGSGTDFTLTLSRLEPEDFAVYFCQYYGSSPYTFGGGTKVEMK

Reference: patent US20080311122A1 (AstraZeneca / MedImmune, published 2008)
